{"source": "paper PMC5709738", "about": "(The EMBO Journal, 2017)", "binders": {"B1": {"name": "Nkp1-Nkp2 heterodimer (K. lactis) (complex, Kluyveromyces lactis)", "chain 1": "MDLESEIIQLVRQNIRPKFPSLNDEQQARLDNALKYDVNYDILKKELVEYIDDWKRNEYYDVLTNIGDLQRLDLGNMLNGDGVSFPKLHSDLANLPRFRLIDNENEMDQSLLHKYDSLRTRLIEKCRAIELIRSATNTDVNYQDINSMLSVVELRQWRDEIQMEWKELAQNLELILKTWPDLTEEKRSKLLQLIDSSSLKSILHIKDNIE", "chain 2": "MLHEVLYKHLDGILVSRLYTEDQFVDLFSRTIPESNTVIASQLYKSYEENDQRIIEKIDKLIDNKLSLIRVELEREQIEDSISLEEVNKLLHSIDDMLQQHLNQLNIELDNKNTKLLKYAMELSDIEAIDTSMYDNVAKLITDMETNQPSS", "notes": "Nkp1 of Kluyveromyces lactis; Nkp2 of Kluyveromyces lactis; also called NN; source: E. coli BL21 Rosetta 2(DE3)pLysS, purified"}, "B2": {"name": "Ame1-Okp1 (K. lactis, full length) (complex, Kluyveromyces lactis)", "chain 1": "MDALKQRHLKLLYRQRGSASRTIDYDVVIEPELREDGDLVTDSQLTEQDDQSFPDIQVPSPDRVDDFDLNQGDGLMDKATANEDDIDHVIGDEVAAVNAPVETSDLVIDTTQFDSMTLSQLSTPLTSMATIDVLRRLLETVILVTIEERTSQFNRAGSARLRLKLKLEIKILTWFLHQSKEDLITISELNLSNNDLLYRLKQISLLKNSLSRSLLDVRSAISSYEGPNNALSEEQVALQNFKRINELILSQRIDTIINNNLPPDTSTFDTESKKGLLPTLKTLNESLQNTIG", "chain 2": "MSKRYLDDVLSPDTGTSDSDSSIENLNADNYRIDIVNDNARRDDIDRIQSSNLNHEPPYNLEGVFAIDDDEHGDEMVRKDSDRRQDITEDNDDSFVPDITTPPRERKRVRFGINEKGGDEEFNNVSPWDFKRLIRKFYKEQLPDTYQIRNWKRPSKDMLTNFIDLIENNIELASEEVFKQYHQELNQLYPDSEEQAKLKDSLENKVFDTTYNIKKRLKRTKVPSKIWVDNLNMEYIYAKGESIKKRYKSELDRAEAIERQLIREEEHLKSLQEKGETQAKKRKQVLSKELSELSKTMHPSLSVALSNTFGLIKDDKMSNEIYQQDKIDFNLKLKTDFSKPLISEKEENSLNGLTNAMDNNRELVNEIFGKISALLQPKKNSNE", "notes": "Ame1 of Kluyveromyces lactis; Okp1 of Kluyveromyces lactis; stands as the Ame1-Okp1 part of COMA; also called Okp1-Ame1; source: E. coli BL21 Rosetta 2(DE3)pLysS, co-expressed with Ctf19 and Mcm21 versions"}}, "key": {"Nkp1 (K. lactis)": {"target": "T1, Nkp1 (K. lactis) (Kluyveromyces lactis, UniProt Q6CPR4 1-210)", "T1 construct": "Nkp1 of Kluyveromyces lactis; also called non-essential kinetochore protein 1; HisNkp1; source: E. coli BL21 Rosetta 2(DE3)pLysS, purified", "T1 sequence (looked up)": "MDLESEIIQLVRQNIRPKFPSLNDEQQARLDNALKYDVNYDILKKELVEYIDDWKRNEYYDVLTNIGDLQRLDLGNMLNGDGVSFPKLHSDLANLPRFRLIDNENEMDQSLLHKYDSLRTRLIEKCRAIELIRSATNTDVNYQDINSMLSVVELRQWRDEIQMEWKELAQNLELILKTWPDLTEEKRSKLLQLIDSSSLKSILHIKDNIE", "assay": "HDX-MS; purified assemblies in D2O buffer, quenched at pH ~2.5, pepsin column; exchange patterns compared between assemblies", "settings": "both partners purified"}, "[1]": {"target": "B2", "assay": "native MS; nanoflow spectra and tandem mode with collision-induced dissociation in the gas phase (argon); subassemblies stripped of subunits", "settings": "both partners purified"}, "[2]": {"target": "T2, COMA (K. lactis, full length: Ame1, Ctf19, Mcm21, Okp1) (Kluyveromyces lactis, UniProt Q6CUE5 1-292; Q6CRN7 1-270; Q6CVQ9 1-293; Q6CJY0 1-383)", "T2 construct": "Ame1 of Kluyveromyces lactis; Ctf19 of Kluyveromyces lactis; Mcm21 of Kluyveromyces lactis; Okp1 of Kluyveromyces lactis; copies: + + +", "T2 sequence (looked up) 1": "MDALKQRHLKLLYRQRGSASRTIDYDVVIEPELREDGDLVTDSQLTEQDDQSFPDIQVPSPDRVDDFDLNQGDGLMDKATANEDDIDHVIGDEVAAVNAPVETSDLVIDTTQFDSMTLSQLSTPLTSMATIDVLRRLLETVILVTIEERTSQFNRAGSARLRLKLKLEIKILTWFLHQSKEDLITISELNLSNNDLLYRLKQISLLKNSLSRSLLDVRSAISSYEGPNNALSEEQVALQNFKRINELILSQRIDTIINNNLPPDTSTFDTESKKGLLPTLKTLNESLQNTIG", "T2 sequence (looked up) 2": "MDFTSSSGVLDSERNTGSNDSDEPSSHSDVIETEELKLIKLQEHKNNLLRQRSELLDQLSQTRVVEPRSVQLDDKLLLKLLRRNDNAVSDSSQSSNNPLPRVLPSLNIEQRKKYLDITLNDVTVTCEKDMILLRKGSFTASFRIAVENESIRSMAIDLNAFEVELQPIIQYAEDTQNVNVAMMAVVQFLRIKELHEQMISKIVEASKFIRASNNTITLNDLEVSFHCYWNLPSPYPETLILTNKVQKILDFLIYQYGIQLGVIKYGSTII", "T2 sequence (looked up) 3": "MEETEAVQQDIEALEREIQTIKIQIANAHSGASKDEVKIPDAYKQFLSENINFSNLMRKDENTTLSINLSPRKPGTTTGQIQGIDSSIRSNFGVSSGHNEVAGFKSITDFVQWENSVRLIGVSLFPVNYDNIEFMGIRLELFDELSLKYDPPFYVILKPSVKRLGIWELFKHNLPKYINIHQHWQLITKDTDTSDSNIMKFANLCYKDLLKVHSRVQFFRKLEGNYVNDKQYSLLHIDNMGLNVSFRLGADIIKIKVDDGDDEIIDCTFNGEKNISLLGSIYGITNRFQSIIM", "T2 sequence (looked up) 4": "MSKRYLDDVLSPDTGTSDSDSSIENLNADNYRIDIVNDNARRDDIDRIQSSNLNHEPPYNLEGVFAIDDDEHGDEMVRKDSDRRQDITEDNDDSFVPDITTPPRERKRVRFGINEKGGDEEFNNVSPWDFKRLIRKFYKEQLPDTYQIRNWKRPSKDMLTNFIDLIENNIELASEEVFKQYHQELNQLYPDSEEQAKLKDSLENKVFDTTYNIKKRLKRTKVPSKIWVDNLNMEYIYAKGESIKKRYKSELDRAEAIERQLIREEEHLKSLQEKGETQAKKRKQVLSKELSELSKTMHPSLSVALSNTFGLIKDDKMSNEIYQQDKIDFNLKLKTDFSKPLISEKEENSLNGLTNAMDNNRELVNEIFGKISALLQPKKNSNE", "assay": "native MS; nanoflow spectra and tandem mode with collision-induced dissociation in the gas phase (argon); subassemblies stripped of subunits", "settings": "both partners purified"}, "[3]": {"target": "T2, COMA (K. lactis, full length: Ame1, …)", "assay": "SEC; reconstituted K. lactis COMA-Nkp1-Nkp2; peak fractions on Coomassie-stained SDS-PAGE"}, "[4]": {"target": "T3, Ctf19_D-RWD-Mcm21_D-RWD-Okp1_229-383 (K. lactis) (Kluyveromyces lactis, UniProt Q6CRN7 107-270; Q6CVQ9 108-293; Q6CJY0 229-383)", "T3 construct": "Ctf19 of Kluyveromyces lactis, residues 107-270; Mcm21 of Kluyveromyces lactis, residues 108-293; also called Ctf19-Mcm21-Okp1 variant that includes Okp1 segment 3; CMO; source: E. coli BL21 Rosetta 2(DE3)pLysS, co-expressed, purified; copies: + +", "T3 sequence (looked up) 1": "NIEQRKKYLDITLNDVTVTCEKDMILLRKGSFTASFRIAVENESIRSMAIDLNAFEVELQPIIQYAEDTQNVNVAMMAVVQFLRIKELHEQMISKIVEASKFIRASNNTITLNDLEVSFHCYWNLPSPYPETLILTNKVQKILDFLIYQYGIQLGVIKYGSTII", "T3 sequence (looked up) 2": "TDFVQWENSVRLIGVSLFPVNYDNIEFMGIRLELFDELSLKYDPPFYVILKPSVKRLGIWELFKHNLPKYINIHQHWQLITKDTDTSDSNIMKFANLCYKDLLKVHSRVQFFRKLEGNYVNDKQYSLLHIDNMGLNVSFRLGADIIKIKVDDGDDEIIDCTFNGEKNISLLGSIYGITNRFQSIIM", "T3 sequence (looked up) 3": "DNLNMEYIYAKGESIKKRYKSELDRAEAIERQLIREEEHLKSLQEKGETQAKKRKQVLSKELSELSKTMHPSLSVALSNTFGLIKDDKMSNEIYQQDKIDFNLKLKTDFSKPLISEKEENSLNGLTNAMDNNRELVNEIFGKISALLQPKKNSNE", "assay": "SEC; analytical SEC of purified K. lactis samples alone and combined, Superdex 200 10/300, 4°C; fractions on SDS-PAGE", "settings": "both partners purified"}, "[5]": {"target": "B1", "assay": "SEC; analytical SEC of purified K. lactis samples alone and combined, Superdex 200 10/300, 4°C; fractions on SDS-PAGE", "settings": "both partners purified"}, "[6]": {"target": "the molecule itself", "assay": "native MS; nanoflow spectra and tandem mode with collision-induced dissociation in the gas phase (argon); subassemblies stripped of subunits"}}, "data": [{"binder": "Nkp2 (K. lactis) (natural protein, Kluyveromyces lactis, UniProt Q6CSR8 1-151, looked up, Nkp2 of Kluyveromyces lactis; also called non-essential kinetochore protein 2; source: E. coli BL21 Rosetta 2(DE3)pLysS, purified) MLHEVLYKHLDGILVSRLYTEDQFVDLFSRTIPESNTVIASQLYKSYEENDQRIIEKIDKLIDNKLSLIRVELEREQIEDSISLEEVNKLLHSIDDMLQQHLNQLNIELDNKNTKLLKYAMELSDIEAIDTSMYDNVAKLITDMETNQPSS", "values": [{"measurement": "binding result", "setting": "Nkp1 (K. lactis)", "result": "binds"}, {"measurement": "binding result", "setting": "[1]", "result": "binds"}, {"measurement": "binding result", "setting": "[2]", "result": "binds"}]}, {"binder": "B1", "values": [{"measurement": "binding result", "setting": "[3]", "result": "binds"}, {"measurement": "binding result", "setting": "[4]", "result": "binds"}]}, {"binder": "Okp1_229-383 (K. lactis) (domain or fragment, Kluyveromyces lactis, UniProt Q6CJY0 229-383, looked up, also called Okp1 variant with segments 1, 2 and 3; source: E. coli BL21 Rosetta 2(DE3)pLysS, co-expressed with Ctf19_D-RWD and Mcm21_D-RWD, purified) DNLNMEYIYAKGESIKKRYKSELDRAEAIERQLIREEEHLKSLQEKGETQAKKRKQVLSKELSELSKTMHPSLSVALSNTFGLIKDDKMSNEIYQQDKIDFNLKLKTDFSKPLISEKEENSLNGLTNAMDNNRELVNEIFGKISALLQPKKNSNE", "values": [{"measurement": "binding result", "setting": "[5]", "result": "binds"}]}, {"binder": "B2", "values": [{"measurement": "binding result", "setting": "[6]", "result": "binds"}]}]}
